Experimental data: patent US20180362585A1 (Bicycle, published 2018)
Numbered stars: 1 amine (or outer) side, 2 acyl side, 3 side chain; on linkers, the order of the positions; unused ones are H or OH. Bridge positions count the residues as written; N and C are the ends. Ends that are not written are not given here. TBMB = c1c(C[*:1])cc(C[*:3])cc1C[*:2]

B1: Ac-(06-34-18) Phe2 Tyr4 Thr7 Thr8 Glu9 (peptide)
peptide: Ac-CSFPYRCLTTELC-NH2
modifications: linker 1-7-13 via TBMB
SMILES: CC(=O)N[C@H]1CSCc2cc3cc(c2)CSC[C@H](NC(=O)[C@H](CCCNC(=N)N)NC(=O)[C@H](Cc2ccc(O)cc2)NC(=O)[C@@H]2CCCN2C(=O)[C@H](Cc2ccccc2)NC(=O)[C@H](CO)NC1=O)C(=O)N[C@@H](CC(C)C)C(=O)N[C@@H]([C@@H](C)O)C(=O)N[C@@H]([C@@H](C)O)C(=O)N[C@@H](CCC(=O)O)C(=O)N[C@@H](CC(C)C)C(=O)N[C@H](C(N)=O)CSC3
notes: also called loop 2 LTTEL
B2: Ac-(06-34-18) A2A3 (peptide)
peptide: Ac-CSAAARCLHQDLC-NH2
modifications: linker 1-7-13 via TBMB
SMILES: CC(=O)N[C@H]1CSCc2cc3cc(c2)CSC[C@H](NC(=O)[C@H](CCCNC(=N)N)NC(=O)[C@H](C)NC(=O)[C@H](C)NC(=O)[C@H](C)NC(=O)[C@H](CO)NC1=O)C(=O)N[C@@H](CC(C)C)C(=O)N[C@@H](Cc1c[nH]cn1)C(=O)N[C@@H](CCC(N)=O)C(=O)N[C@@H](CC(=O)O)C(=O)N[C@@H](CC(C)C)C(=O)N[C@H](C(N)=O)CSC3
B3: Ac-(06-34-18) A2Q3 (peptide)
peptide: Ac-CSAQARCLHQDLC-NH2
modifications: linker 1-7-13 via TBMB
SMILES: CC(=O)N[C@H]1CSCc2cc3cc(c2)CSC[C@H](NC(=O)[C@H](CCCNC(=N)N)NC(=O)[C@H](C)NC(=O)[C@H](CCC(N)=O)NC(=O)[C@H](C)NC(=O)[C@H](CO)NC1=O)C(=O)N[C@@H](CC(C)C)C(=O)N[C@@H](Cc1c[nH]cn1)C(=O)N[C@@H](CCC(N)=O)C(=O)N[C@@H](CC(=O)O)C(=O)N[C@@H](CC(C)C)C(=O)N[C@H](C(N)=O)CSC3
B4: Ac-(06-34-18) Scram1 (peptide)
peptide: Ac-CPSAWRCLHQDLC-NH2
modifications: linker 1-7-13 via TBMB
SMILES: CC(=O)N[C@H]1CSCc2cc3cc(c2)CSC[C@H](NC(=O)[C@H](CCCNC(=N)N)NC(=O)[C@H](Cc2c[nH]c4ccccc24)NC(=O)[C@H](C)NC(=O)[C@H](CO)NC(=O)[C@@H]2CCCN2C1=O)C(=O)N[C@@H](CC(C)C)C(=O)N[C@@H](Cc1c[nH]cn1)C(=O)N[C@@H](CCC(N)=O)C(=O)N[C@@H](CC(=O)O)C(=O)N[C@@H](CC(C)C)C(=O)N[C@H](C(N)=O)CSC3
B5: Ac-(06-34-18) Scram3 (peptide)
peptide: Ac-CAPWSRCLHQDLC-NH2
modifications: linker 1-7-13 via TBMB
SMILES: CC(=O)N[C@H]1CSCc2cc3cc(c2)CSC[C@H](NC(=O)[C@H](CCCNC(=N)N)NC(=O)[C@H](CO)NC(=O)[C@H](Cc2c[nH]c4ccccc24)NC(=O)[C@@H]2CCCN2C(=O)[C@H](C)NC1=O)C(=O)N[C@@H](CC(C)C)C(=O)N[C@@H](Cc1c[nH]cn1)C(=O)N[C@@H](CCC(N)=O)C(=O)N[C@@H](CC(=O)O)C(=O)N[C@@H](CC(C)C)C(=O)N[C@H](C(N)=O)CSC3
B6: Ac-(06-34-18) Scram4 (peptide)
peptide: Ac-CWARSPCLHQDLC-NH2
modifications: linker 1-7-13 via TBMB
SMILES: CC(=O)N[C@H]1CSCc2cc3cc(c2)CSC[C@H](NC(=O)[C@@H]2CCCN2C(=O)[C@H](CO)NC(=O)[C@H](CCCNC(=N)N)NC(=O)[C@H](C)NC(=O)[C@H](Cc2c[nH]c4ccccc24)NC1=O)C(=O)N[C@@H](CC(C)C)C(=O)N[C@@H](Cc1c[nH]cn1)C(=O)N[C@@H](CCC(N)=O)C(=O)N[C@@H](CC(=O)O)C(=O)N[C@@H](CC(C)C)C(=O)N[C@H](C(N)=O)CSC3
B7: Ac-(06-34-18) Scram2 (peptide)
peptide: Ac-CWASPRCLHQDLC-NH2
modifications: linker 1-7-13 via TBMB
SMILES: CC(=O)N[C@H]1CSCc2cc3cc(c2)CSC[C@H](NC(=O)[C@H](CCCNC(=N)N)NC(=O)[C@@H]2CCCN2C(=O)[C@H](CO)NC(=O)[C@H](C)NC(=O)[C@H](Cc2c[nH]c4ccccc24)NC1=O)C(=O)N[C@@H](CC(C)C)C(=O)N[C@@H](Cc1c[nH]cn1)C(=O)N[C@@H](CCC(N)=O)C(=O)N[C@@H](CC(=O)O)C(=O)N[C@@H](CC(C)C)C(=O)N[C@H](C(N)=O)CSC3

Molecular target: T1, rat plasma Kallikrein (rat, UniProt P14272 391-638, limits assumed)
T1 construct: domain: catalytic domain; also called rPK; rat PK
T1 sequence (P14272 391-638 limits assumed): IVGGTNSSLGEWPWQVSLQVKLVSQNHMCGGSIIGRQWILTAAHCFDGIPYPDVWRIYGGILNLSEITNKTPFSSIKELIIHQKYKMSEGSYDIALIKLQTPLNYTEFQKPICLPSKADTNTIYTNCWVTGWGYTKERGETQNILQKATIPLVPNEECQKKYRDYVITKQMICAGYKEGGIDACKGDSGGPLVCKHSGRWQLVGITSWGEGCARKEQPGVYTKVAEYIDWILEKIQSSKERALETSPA
Assay: enzyme inhibition
Method: (§1) Functional enzyme assays were conducted in 10 mM Tris HCl, 150 mM NaCl, 10 mM MgCl2, 1 mM CaCl₂) and 1 mg/mL BSA (all Sigma UK) pH7.4 at 25° C. in solid black 96 well plates. […] Release of AMC was measured using a Pherastar FS (BMG Labtech), excitation 360 nm, emission 460 nm. The rate of the linear phase of the reaction, typically 5 to 45 minutes, was calculated in MARS data analysis software (BMG labtech). The rate was then used to calculate the IC50 and Ki in Prism (GraphPad).

Binder | IC50 [nM]
ACRWPARCMHQDLCA (linker 2-8-14 via TBMB; not fully specified (N-terminus, C-terminus)) [06-34-04] | 0.56
ACSWPARCMHQDLCA (linker 2-8-14 via TBMB; not fully specified (N-terminus, C-terminus)) [06-34-17 (01 + 04)] | 0.44
ACRWPARCLHQDLCA (linker 2-8-14 via TBMB; not fully specified (N-terminus, C-terminus)) [06-34-05] | 0.62
ACSWPARCLHQDLCA (linker 2-8-14 via TBMB; not fully specified (N-terminus, C-terminus)) [06-34-18 (01 + 05)] | 0.56

Molecular target: T2, human plasma Kallikrein (human, UniProt P03952 20-638)
T2 construct: also called hPK; human PK
T2 sequence (P03952 20-638 limits assumed): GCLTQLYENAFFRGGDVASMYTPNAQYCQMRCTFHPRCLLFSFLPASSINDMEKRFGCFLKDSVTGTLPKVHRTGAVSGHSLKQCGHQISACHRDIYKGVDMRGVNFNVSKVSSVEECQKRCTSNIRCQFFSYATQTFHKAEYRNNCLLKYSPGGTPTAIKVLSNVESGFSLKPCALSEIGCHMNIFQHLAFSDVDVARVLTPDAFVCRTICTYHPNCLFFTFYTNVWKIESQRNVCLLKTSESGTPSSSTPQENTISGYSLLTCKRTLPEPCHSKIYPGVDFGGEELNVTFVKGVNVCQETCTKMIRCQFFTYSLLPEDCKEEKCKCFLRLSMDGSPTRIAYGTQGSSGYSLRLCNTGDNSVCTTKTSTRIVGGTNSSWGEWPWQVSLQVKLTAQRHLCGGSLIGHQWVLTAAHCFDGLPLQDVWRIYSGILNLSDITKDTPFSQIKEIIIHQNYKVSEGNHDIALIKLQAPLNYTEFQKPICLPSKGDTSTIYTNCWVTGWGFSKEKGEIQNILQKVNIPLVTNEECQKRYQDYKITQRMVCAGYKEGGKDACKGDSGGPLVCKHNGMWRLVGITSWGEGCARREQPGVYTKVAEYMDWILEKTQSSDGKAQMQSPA
Assay: enzyme inhibition
Method: as §1

Binder | Ki [nM] | IC50 [nM] | fold reduction in binding vs wildtype [fold]
B1 | 81 | – | –
ACRWPARCMHQDLCA (linker 2-8-14 via TBMB; not fully specified (N-terminus, C-terminus)) [06-34-04] | – | 0.075 | –
ACSWPARCMHQDLCA (linker 2-8-14 via TBMB; not fully specified (N-terminus, C-terminus)) [06-34-17 (01 + 04)] | – | 0.073 | –
ACRWPARCLHQDLCA (linker 2-8-14 via TBMB; not fully specified (N-terminus, C-terminus)) [06-34-05] | – | 0.076 | –
ACSWPARCLHQDLCA (linker 2-8-14 via TBMB; not fully specified (N-terminus, C-terminus)) [06-34-18 (01 + 05)] | 0.04 | 0.07 | –
B2 | – | – | ~100000
B3 | – | – | ~100000

Molecular target: T2, human plasma Kallikrein
Assay: enzyme inhibition; ref WT
Method: as §1

Binder | F (Kivar/KiWT) [fold]
B1 | 193

Molecular target: T2, human plasma Kallikrein
Assay: enzyme inhibition
Remark: another data set of the same source
Method: as §1
Crucially, such modifications should not affect the potency against human or rat Kallikrein. An initial exploration regarding the role of the WPAR (SEQ ID No. 19) sequence/pharmacophore (FIG. 9, 10) was performed by replacing W₂P₃ with A₂A₃ or A₂Q₃ and by scrambling parts or the entire first loop of the bicycle.

Binder | Ki [nM]
B4 | 1090
B2 | 18500
B3 | 15800
B5 | 1890
B6 | 67500
B7 | 11400
